Measurements taken from US20250145710A1 (published 2025).

T1: human CLDN6 (human, UniProt P56747 1-220)
T1 chain: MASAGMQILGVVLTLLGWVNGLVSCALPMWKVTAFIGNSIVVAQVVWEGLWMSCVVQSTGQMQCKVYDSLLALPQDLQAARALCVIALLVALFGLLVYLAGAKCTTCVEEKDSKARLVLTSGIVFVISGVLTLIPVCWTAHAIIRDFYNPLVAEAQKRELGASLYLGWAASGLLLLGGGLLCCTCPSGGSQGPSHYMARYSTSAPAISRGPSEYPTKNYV


Tests used:
human CLDN6 = biological target: T1, human CLDN6; assay: flow cytometry cell binding
human CD3 = human CD3 (UniProt P07766 23-207; P04234 22-171; P09693 23-182); assay: flow cytometry cell binding
Sequence of human CD3 (P07766 23-207, chain 1 of 3): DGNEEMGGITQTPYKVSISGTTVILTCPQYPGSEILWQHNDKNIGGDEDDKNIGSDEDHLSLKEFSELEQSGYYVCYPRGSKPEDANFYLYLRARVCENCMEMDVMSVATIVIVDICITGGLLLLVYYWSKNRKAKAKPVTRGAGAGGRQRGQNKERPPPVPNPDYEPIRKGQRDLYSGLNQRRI
Sequence of human CD3 (P04234 22-171, chain 2 of 3): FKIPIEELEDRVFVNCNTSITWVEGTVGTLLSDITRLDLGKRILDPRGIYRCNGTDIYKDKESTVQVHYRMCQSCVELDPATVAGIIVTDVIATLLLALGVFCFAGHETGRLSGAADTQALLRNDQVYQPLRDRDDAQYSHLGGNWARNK
Sequence of human CD3 (P09693 23-182, chain 3 of 3): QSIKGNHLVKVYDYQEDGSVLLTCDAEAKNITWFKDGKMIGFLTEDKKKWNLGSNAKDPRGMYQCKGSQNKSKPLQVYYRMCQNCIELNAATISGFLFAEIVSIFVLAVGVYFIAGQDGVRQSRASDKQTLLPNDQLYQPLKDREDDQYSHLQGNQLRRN

Binder | EC50 (human CLDN6) | EC50 (human CD3)
IMC-2-7 tandem scFv antibody (bispecific antibody) scFv: SYELTQPPSVSVSPGQTARITCSAGSGLYGWYQQKPGQAPVLVIYGTNKRPSGIPERFSGSSSGTTVTLTISGVQAEDEADYYCGSADSSTNAGIFGGGTKLTVLGGGGSGGGGSGGGGSEVQLLESGGGLVQPGGSLRLSCAASGFTFSSYAMNWVRQAPGKGLEWVAGISSSGRYTGYADSVKGRFTISRDNSKNTLYLQMNSLRAEDTAVYYCAKSVGSGVSWSGYVATSLDAWGQGTLVTVSSGGGGSEVQLVESGGGLVQPGGSLRLSCAASGFTFSTYAMNWVRQAPGKGLEWVGRIRSKYNNYATYYADSVKGRFTISRDDSKNTLYLQMNSLRAEDTAVYYCVRHGNFGDSYVSWFAYWGQGTLVTVSSGKPGSGKPGSGKPGSGKPGSQAVVTQEPSLTVSPGGTVTLTCGSSTGAVTTSNYANWVQQKPGKSPRGLIGGTNKRAPGVPARFSGSLLGGKAALTISGAQPEDEADYYCALWYSNHWVFGGGTKLTVL | 0.0405 µM | 0.0073 µM
IMC-21-1 IgG-(scFv)2 antibody (bispecific antibody) heavy: not shown light: SYELTQPPSVSVSPGQTARITCSAGSGLYGWYQQKPGQAPVLVIYGTNKRPSGIPERFSGSSSGTTVTLTISGVQAEDEADYYCGSADSSTNAGIFGGGTKLTVLGQPKAAPSVTLFPPSSEELQANKATLVCLISDFYPGAVTVAWKADSSPVKAGVETTTPSKQSNNKYAASSYLSLTPEQWKSHRSYSCQVTHEGSTVEKTVAPTECS | 0.0072 µM | 0.0536 µM
IMC-16-15 scFv-Fab IgG antibody (bispecific antibody) heavy: EVQLLESGGGLVQPGGSLRLSCAASGFTFSSYAMNWVRQAPGKGLEWVAGISSSGRYTGYADSVKGRFTISRDNSKNTLYLQMNSLRAEDTAVYYCAKSMGSGVSWSGYVATSIDVWGQGTLVTVSSASTKGPSVFPLAPSSKSTSGGTAALGCLVKDYFPEPVTVSWNSGALTSGVHTFPAVLQSSGLYSLSSVVTVPSSSLGTQTYICNVNHKPSNTKVDKKVEPKSCDKTHTCPPCPAPEAAGGPSVFLFPPKPKDTLMISRTPEVTCVVVDVSHEDPEVKFNWYVDGVEVHNAKTKPREEQYNSTYRVVSVLTVLHQDWLNGKEYKCKVSNKALPAPIEKTISKAKGQPREPQVYTLPPSREEMTKNQVSLWCLVKGFYPSDIAVEWESNGQPENNYKTTPPVLDSDGSFFLYSKLTVDKSRWQQGNVFSCSVMHEALHNHYTQKSLSLSPGK light: SYELTQPPSVSVSPGQTARITCSAGSGLYGWYQQKPGQAPVLVIYGTNKRPSGIPERFSGSSSGTTVTLTISGVQAEDEADYYCGSADSSTNAGIFGGGTKLTVLGQPKAAPSVTLFPPSSEELQANKATLVCLISDFYPGAVTVAWKADSSPVKAGVETTTPSKQSNNKYAASSYLSLTPEQWKSHRSYSCQVTHEGSTVEKTVAPTECS scFv: EVQLVESGGGLVQPGGSLRLSCAASGFTFSTYAMNWVRQAPGKGLEWVGRIRSKYNNYATYYADSVKGRFTISRDDSKNTLYLQMNSLRAEDTAVYYCVRHGNFGDSYVSWFAYWGQGTLVTVSSGKPGSGKPGSGKPGSGKPGSQAVVTQEPSLTVSPGGTVTLTCGSSTGAVTTSNYANWVQQKPGKSPRGLIGGTNKRAPGVPARFSGSLLGGKAALTISGAQPEDEADYYCALWYSNHWVFGGGTKLTVLASPKSSDKTHTCPPCPAPEAAGGPSVFLFPPKPKDTLMISRTPEVTCVVVDVSHEDPEVKFNWYVDGVEVHNAKTKPREEQYNSTYRVVSVLTVLHQDWLNGKEYKCKVSNKALPAPIEKTISKAKGQPREPQVYTLPPSREEMTKNQVSLSCAVKGFYPSDIAVEWESNGQPENNYKTTPPVLDSDGSFFLVSKLTVDKSRWQQGNVFSCSVMHEALHNHYTQKSLSLSPGK | 0.0241 µM | 0.00262 µM
IMC-16-3 scFv-Fab IgG antibody (bispecific antibody) heavy: EVQLLESGGGLVQPGGSLRLSCAASGFTFSSYAMNWVRQAPGKGLEWVAGISSSGRYTGYADSVKGRFTISRDNSKNTLYLQMNSLRAEDTAVYYCAKSVGSGVSWSGYVATSLDAWGQGTLVTVSSASTKGPSVFPLAPSSKSTSGGTAALGCLVKDYFPEPVTVSWNSGALTSGVHTFPAVLQSSGLYSLSSVVTVPSSSLGTQTYICNVNHKPSNTKVDKKVEPKSCDKTHTCPPCPAPEAAGGPSVFLFPPKPKDTLMISRTPEVTCVVVDVSHEDPEVKFNWYVDGVEVHNAKTKPREEQYNSTYRVVSVLTVLHQDWLNGKEYKCKVSNKALPAPIEKTISKAKGQPREPQVYTLPPSREEMTKNQVSLWCLVKGFYPSDIAVEWESNGQPENNYKTTPPVLDSDGSFFLYSKLTVDKSRWQQGNVFSCSVMHEALHNHYTQKSLSLSPGK light: SYELTQPPSVSVSPGQTARITCSAGSGLYGWYQQKPGQAPVLVIYGTNKRPSGIPERFSGSSSGTTVTLTISGVQAEDEADYYCGSADSSTNAGIFGGGTKLTVLGQPKAAPSVTLFPPSSEELQANKATLVCLISDFYPGAVTVAWKADSSPVKAGVETTTPSKQSNNKYAASSYLSLTPEQWKSHRSYSCQVTHEGSTVEKTVAPTECS scFv: EVQLVESGGGLVQPGGSLRLSCAASGFTFSTYAMNWVRQAPGKGLEWVGRIRSKYNNYATYYADSVKGRFTISRDDSKNTLYLQMNSLRAEDTAVYYCVRHGNFGDSYVSWFAYWGQGTLVTVSSGKPGSGKPGSGKPGSGKPGSQAVVTQEPSLTVSPGGTVTLTCGSSTGAVTTSNYANWVQQKPGKSPRGLIGGTNKRAPGVPARFSGSLLGGKAALTISGAQPEDEADYYCALWYSNHWVFGGGTKLTVLASPKSSDKTHTCPPCPAPEAAGGPSVFLFPPKPKDTLMISRTPEVTCVVVDVSHEDPEVKFNWYVDGVEVHNAKTKPREEQYNSTYRVVSVLTVLHQDWLNGKEYKCKVSNKALPAPIEKTISKAKGQPREPQVYTLPPSREEMTKNQVSLSCAVKGFYPSDIAVEWESNGQPENNYKTTPPVLDSDGSFFLVSKLTVDKSRWQQGNVFSCSVMHEALHNHYTQKSLSLSPGK | 0.0137 µM | 0.00346 µM
